Patent US20250313631A1 (HUMMINGBIRD BIOSCIENCE PTE, published 2025)
Residue numbers refer to the chain shown, from its start. Where two headings read alike, the source gives them in different places.

Experiments:
human PD-L1 = biological target: T1, human PD-L1 (human, UniProt Q9NZQ7 19-239); test: BLI (Octet), His-tagged human PD-L1 on anti-Penta-HIS biosensor, antibody 500-15.6 nM
T1 construct: captured through a His tag in the BLI experiments; also called hPD-L1; B7H1/PDL-1
Experimental: Finally, the biosensors were incubated for 120 sec in PBS pH 7.2 to obtain the dissociation curves. Kinetic and affinity constants were calculated by global fitting of the association and dissociation data to a 1:1 binding model.

[1] = biological target: T2, recombinant mouse VISTA (His-tagged) (mouse, UniProt Q9D659 33-191); test: ELISA, plate coated with mouse VISTA; unit nM from the legend paragraph 697
T2 construct: also called murine VISTA; mVISTA
T2 sequence (looked up): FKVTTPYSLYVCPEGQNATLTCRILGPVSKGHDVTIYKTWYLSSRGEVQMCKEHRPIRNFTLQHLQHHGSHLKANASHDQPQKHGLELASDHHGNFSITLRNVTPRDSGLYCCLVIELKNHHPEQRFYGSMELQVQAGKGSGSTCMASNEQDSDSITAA

human CTLA4 [2] = biological target: T3, human CTLA4 (human, UniProt P16410 36-162); test: ELISA, plate coated with the antigen
T3 sequence (P16410 36-162 limits assumed): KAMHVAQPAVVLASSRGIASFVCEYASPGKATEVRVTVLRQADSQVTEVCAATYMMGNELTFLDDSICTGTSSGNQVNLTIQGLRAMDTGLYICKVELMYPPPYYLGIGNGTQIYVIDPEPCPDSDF

human PD-1 [3] = biological target: T4, human PD-1 (human, UniProt Q15116 25-167); test: ELISA, plate coated with the antigen
T4 sequence (Q15116 25-167 limits assumed): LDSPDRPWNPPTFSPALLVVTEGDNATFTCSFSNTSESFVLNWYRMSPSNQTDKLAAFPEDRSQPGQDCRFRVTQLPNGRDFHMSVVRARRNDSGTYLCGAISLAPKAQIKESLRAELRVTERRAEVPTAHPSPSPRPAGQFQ

human B7H3 [4] = biological target: T5, human B7H3 (human, UniProt Q5ZPR3 29-461, limits assumed); test: ELISA, plate coated with the antigen
T5 construct: also called CD276
T5 sequence (looked up): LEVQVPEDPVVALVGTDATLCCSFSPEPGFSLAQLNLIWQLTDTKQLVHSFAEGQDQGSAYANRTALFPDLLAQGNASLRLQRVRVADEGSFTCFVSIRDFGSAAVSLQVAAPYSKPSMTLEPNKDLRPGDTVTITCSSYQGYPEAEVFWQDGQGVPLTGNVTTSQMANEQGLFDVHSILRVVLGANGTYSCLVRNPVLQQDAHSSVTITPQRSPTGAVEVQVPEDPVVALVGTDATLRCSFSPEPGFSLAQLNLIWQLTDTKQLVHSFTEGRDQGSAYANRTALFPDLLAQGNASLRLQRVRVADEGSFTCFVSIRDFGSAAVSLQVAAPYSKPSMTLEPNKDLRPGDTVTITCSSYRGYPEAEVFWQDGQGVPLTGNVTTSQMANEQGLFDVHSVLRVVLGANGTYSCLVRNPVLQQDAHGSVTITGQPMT

human B7H6 [5] = biological target: T6, human B7H6 (human, UniProt Q68D85 25-262); test: ELISA, plate coated with the antigen
T6 construct: also called NCR3LG1
T6 sequence (looked up): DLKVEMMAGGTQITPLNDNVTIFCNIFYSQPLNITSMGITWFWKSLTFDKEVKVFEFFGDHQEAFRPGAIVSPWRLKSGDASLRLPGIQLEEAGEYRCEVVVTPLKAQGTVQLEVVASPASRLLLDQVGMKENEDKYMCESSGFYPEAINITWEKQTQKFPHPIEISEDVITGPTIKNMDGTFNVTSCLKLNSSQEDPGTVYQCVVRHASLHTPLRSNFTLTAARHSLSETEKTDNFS

human B7H7 [6] = biological target: T7, human B7H7 (human, UniProt Q9UM44 23-344); test: ELISA, plate coated with the antigen
T7 construct: also called HHLA2
T7 sequence (looked up): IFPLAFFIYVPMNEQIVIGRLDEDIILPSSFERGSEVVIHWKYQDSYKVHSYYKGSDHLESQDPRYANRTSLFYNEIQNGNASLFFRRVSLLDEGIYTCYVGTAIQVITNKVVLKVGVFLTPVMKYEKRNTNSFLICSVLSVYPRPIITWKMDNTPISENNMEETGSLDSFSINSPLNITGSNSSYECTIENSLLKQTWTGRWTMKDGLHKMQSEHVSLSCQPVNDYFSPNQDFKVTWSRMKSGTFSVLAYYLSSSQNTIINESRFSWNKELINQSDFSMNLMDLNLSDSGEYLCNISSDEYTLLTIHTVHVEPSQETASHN

human B7H4 [7] = biological target: T8, human B7H4 (human, UniProt Q7Z7D3 25-258, limits assumed); test: ELISA, plate coated with the antigen
T8 construct: also called VTCN1
T8 sequence (looked up): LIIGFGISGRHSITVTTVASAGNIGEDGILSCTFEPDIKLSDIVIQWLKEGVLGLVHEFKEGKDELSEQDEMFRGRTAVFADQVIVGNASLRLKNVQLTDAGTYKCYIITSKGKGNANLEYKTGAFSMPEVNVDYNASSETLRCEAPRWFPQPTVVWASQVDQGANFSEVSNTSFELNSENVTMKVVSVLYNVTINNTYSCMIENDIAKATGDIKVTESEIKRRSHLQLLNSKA

[8] = biological target: T9, recombinant rat VISTA (His-tagged) (rat, UniProt A0ABK0L5H3 33-192); test: ELISA, plate coated with rat VISTA
T9 sequence: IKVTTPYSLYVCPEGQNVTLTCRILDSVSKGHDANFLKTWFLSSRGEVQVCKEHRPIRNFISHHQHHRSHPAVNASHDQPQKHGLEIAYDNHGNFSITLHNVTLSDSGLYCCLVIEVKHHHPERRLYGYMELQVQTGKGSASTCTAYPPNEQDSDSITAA

[9] = biological target: T10, recombinant human VISTA (His-tagged) (human, UniProt Q9H7M9 33-194); test: BLI (Octet), 1:1 global fit, His-tagged human VISTA captured
T10 construct: bought soluble protein (Sino Biological); also called hVISTA; human VISTA polypeptide

[10] = biological target: T2, recombinant mouse VISTA (His-tagged); test: ELISA, plate coated with mouse VISTA
[11] = biological target: T2, recombinant mouse VISTA (His-tagged); test: BLI (Octet), 1:1 global fit, His-tagged mouse VISTA captured
[12] = biological target: T2, recombinant mouse VISTA (His-tagged); test: ELISA, plate coated with mouse VISTA; unit nM from the legend paragraph 698
[13] = biological target: T2, recombinant mouse VISTA (His-tagged); test: BLI (Octet), 1:1 global fit, His-tagged mouse VISTA captured; remark: listed apart in the source
[14] = biological target: T10, recombinant human VISTA (His-tagged); test: ELISA, plate coated with human VISTA; unit nM from the legend paragraph 697
[15] = biological target: T10, recombinant human VISTA (His-tagged); test: ELISA, plate coated with human VISTA; unit nM from the legend paragraph 698
[16] = biological target: T11, recombinant cynomolgus macaque VISTA (His-tagged) (cynomolgus macaque, UniProt A0A7N9IB00 33-194); test: ELISA, plate coated with cyno VISTA
T11 construct: also called cyno VISTA; cynomolgus monkey VISTA

[17] = biological target: T10, recombinant human VISTA (His-tagged); test: ELISA, plate coated with human VISTA
[18] = biological target: T10, recombinant human VISTA (His-tagged); test: ELISA, plate coated with human VISTA; remark: listed apart in the source
human CTLA4 [19] = biological target: T3, human CTLA4; test: ELISA, plate coated with the antigen; remark: listed apart in the source
human PD-1 [20] = biological target: T4, human PD-1; test: ELISA, plate coated with the antigen; remark: listed apart in the source
human B7H3 [21] = biological target: T5, human B7H3; test: ELISA, plate coated with the antigen; remark: listed apart in the source
human B7H6 [22] = biological target: T6, human B7H6; test: ELISA, plate coated with the antigen; remark: listed apart in the source
human B7H7 [23] = biological target: T7, human B7H7; test: ELISA, plate coated with the antigen; remark: listed apart in the source
human B7H4 [24] = biological target: T8, human B7H4; test: ELISA, plate coated with the antigen; remark: listed apart in the source
[25] = biological target: T10, recombinant human VISTA (His-tagged); test: ELISA, plate coated with human VISTA; remark: listed apart in the source
human CTLA4 [26] = biological target: T3, human CTLA4; test: ELISA, plate coated with the antigen; remark: listed apart in the source
human PD-1 [27] = biological target: T4, human PD-1; test: ELISA, plate coated with the antigen; remark: listed apart in the source
human B7H3 [28] = biological target: T5, human B7H3; test: ELISA, plate coated with the antigen; remark: listed apart in the source
human B7H6 [29] = biological target: T6, human B7H6; test: ELISA, plate coated with the antigen; remark: listed apart in the source
human B7H7 [30] = biological target: T7, human B7H7; test: ELISA, plate coated with the antigen; remark: listed apart in the source
human B7H4 [31] = biological target: T8, human B7H4; test: ELISA, plate coated with the antigen; remark: listed apart in the source
[32] = biological target: T10, recombinant human VISTA (His-tagged); test: ELISA, plate coated with human VISTA; remark: listed apart in the source

T1 sequence (Q9NZQ7 19-239 limits assumed): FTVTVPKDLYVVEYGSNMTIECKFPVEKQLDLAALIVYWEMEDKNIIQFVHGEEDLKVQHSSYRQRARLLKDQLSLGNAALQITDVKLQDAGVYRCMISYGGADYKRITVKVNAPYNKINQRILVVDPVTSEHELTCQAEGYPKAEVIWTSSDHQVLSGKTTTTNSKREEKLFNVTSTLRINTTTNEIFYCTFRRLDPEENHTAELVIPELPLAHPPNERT

B1: anti-VISTA clone V4-C28 IgG1 (antibody, V domains shown)
VH: QVQLQESGPGLVKPSDTLSLTCTVSGYSITSDYTWNWIRQTPGKGLEWIGHITYSGSVSYNPSLRSRVTISRDTSKNQFSLKLSSVTAADTATYSCARALYYPWYFDVWGTGTTVTVSS
VL: EIVLTQSPATLSLSPGERATLSCRASSSVGYIHWYQQKPGQAPRPLIYATSYRATGIPARFSGSGSGTDNTLTISSLEPEDSAVYYCQQWSSYPPITFGGGTKLEVKR
**Q.** What does the source list for B1?
**A.** binding result (human PD-L1): no binding (tested: 500 nM); EC50 [1]: 0.0045 nM; binding result (human CTLA4 [2]): no binding (tested: log -7.5 M); binding result (human PD-1 [3]): no binding (tested: log -7.5 M); binding result (human B7H3 [4]): no binding (tested: log -7.5 M); binding result (human B7H6 [5]): no binding (tested: log -7.5 M); binding result (human B7H7 [6]): no binding (tested: log -7.5 M); binding result (human B7H4 [7]): no binding (tested: log -7.5 M); EC50 [8]: 0.217 nM; Kd [9]: < 0.001 nM; koff [9]: < 1e-07 s⁻¹; kon [9]: 507000 M⁻¹ s⁻¹; EC50 [10]: 0.0365 nM; Kd [11]: 0.489 nM; koff [11]: 0.00025 s⁻¹; kon [11]: 520000 M⁻¹ s⁻¹; EC50 [12]: 0.064 nM; Kd [13]: 0.17 nM; koff [13]: 8.2e-05 s⁻¹; kon [13]: 475000 M⁻¹ s⁻¹; EC50 [14]: 0.0015 nM; EC50 [15]: 0.053 nM; EC50 [16]: 0.0367 nM; EC50 (read off the curve) [17]: ~0.03 nM; EC50 [18]: 0.0346 nM

B2: anti-VISTA clone V4-C30 IgG1 (antibody, V domains shown)
VH: B1 VH
VL: B1 VL with S51Y
**Q.** Does B2 bind (human CTLA4 [19])?
**A.** no binding (tested: log -7.5 M)

**Q.** Does B2 bind (human PD-1 [20])?
**A.** no binding (tested: log -7.5 M)

**Q.** Does B2 bind (human B7H3 [21])?
**A.** no binding (tested: log -7.5 M)

**Q.** Does B2 bind (human B7H6 [22])?
**A.** no binding (tested: log -7.5 M)

**Q.** Does B2 bind (human B7H7 [23])?
**A.** no binding (tested: log -7.5 M)

**Q.** Does B2 bind (human B7H4 [24])?
**A.** no binding (tested: log -7.5 M)

**Q.** What about the “EC50 (read off the curve)” value [25] of the same binder?
**A.** ~0.02 nM

**Q.** Does B2 bind (human PD-L1)?
**A.** no binding (tested: 500 nM)

**Q.** And the EC50 [1]?
**A.** 0.0013 nM

**Q.** And the EC50 [8]?
**A.** 0.206 nM

**Q.** And the Kd [9]?
**A.** < 0.001 nM

**Q.** What about the koff [9] of the same binder?
**A.** < 1e-07 s⁻¹

**Q.** What about the kon [9] of the same binder?
**A.** 593000 M⁻¹ s⁻¹

**Q.** What about the EC50 [10] of the same binder?
**A.** 0.0326 nM

**Q.** And the Kd [11]?
**A.** < 0.001 nM

**Q.** What about the koff [11] of the same binder?
**A.** < 1e-07 s⁻¹

**Q.** And the kon [11]?
**A.** 533000 M⁻¹ s⁻¹

**Q.** What about the EC50 [12] of the same binder?
**A.** 0.123 nM

**Q.** And the Kd [13]?
**A.** 0.005 nM

**Q.** And the koff [13]?
**A.** 2.8e-06 s⁻¹

**Q.** And the kon [13]?
**A.** 505000 M⁻¹ s⁻¹

**Q.** And the EC50 [14]?
**A.** < 0.0007 nM

**Q.** What about the EC50 [15] of the same binder?
**A.** 0.088 nM

**Q.** What about the EC50 [16] of the same binder?
**A.** 0.0272 nM

**Q.** And the EC50 [18]?
**A.** 0.0318 nM

B3: anti-VISTA clone V4-C31 IgG1 (antibody, V domains shown)
VH: B1 VH
VL: B1 VL with S51Y, A54T
**Q.** Which results are given for B3?
**A.** binding result (human PD-L1): no binding (tested: 500 nM); binding result (human CTLA4 [26]): no binding (tested: log -7.5 M); binding result (human PD-1 [27]): no binding (tested: log -7.5 M); binding result (human B7H3 [28]): no binding (tested: log -7.5 M); binding result (human B7H6 [29]): no binding (tested: log -7.5 M); binding result (human B7H7 [30]): no binding (tested: log -7.5 M); binding result (human B7H4 [31]): no binding (tested: log -7.5 M); EC50 [1]: 0.003 nM; EC50 [8]: 0.224 nM; Kd [9]: < 0.001 nM; koff [9]: < 1e-07 s⁻¹; kon [9]: 623000 M⁻¹ s⁻¹; EC50 [10]: 0.04 nM; Kd [11]: < 0.001 nM; koff [11]: < 1e-07 s⁻¹; kon [11]: 344000 M⁻¹ s⁻¹; EC50 [12]: 0.028 nM; Kd [13]: < 0.001 nM; koff [13]: < 1e-07 s⁻¹; kon [13]: 570000 M⁻¹ s⁻¹; EC50 [14]: 0.0032 nM; EC50 (read off the curve) [32]: ~0.02 nM; EC50 [15]: 0.02 nM; EC50 [16]: 0.0321 nM; EC50 [18]: 0.0408 nM
